# pKd: −log10 of the molar value.
# Target: extracellular domain of the aFGF receptor (sFGFR)
# Experiment: ITC, aFGF and the extracellular domain of its receptor
# Chain of aFGF (P05230 16-155): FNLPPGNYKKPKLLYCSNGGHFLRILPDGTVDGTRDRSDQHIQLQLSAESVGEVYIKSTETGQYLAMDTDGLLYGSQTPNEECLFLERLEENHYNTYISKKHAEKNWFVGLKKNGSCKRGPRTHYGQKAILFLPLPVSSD
substance,measurement,value
aFGF,pKd,6.30
